As a reminder, the Kd is the concentration at which binding is half-saturated.

Data on one molecule can be found in patent US10172917B2, “Targeted oesophageal administration of ZN-α2-glycoproteins (ZAG), methods and formulations thereof” (ASTON UNIVERSITY, priority 2012, dated 2019).

The test system of test [1] is BAT of ob/ob mice. Particulars: ob/ob mice after ZAG administration; cited from earlier work.
For test [2], the target named is T1, human β2-AR (Homo sapiens, UniProt P07550).
T1 construct: expressed in transfected cells; host or cells: CHOK1 (CHO-K1) cells
Put plainly: Cyclic AMP production in CHO cells transfected with human β2-AR. It is filed as cell-based. The note with it: 30 min incubation. On the procedure:
(§1) FIG. 3C is a graphical representation of the effect of a tryptic digest of ZAG in comparison with intact ZAG on cyclic AMP production by CHO cells transfected with human β1-AR (▪), β2-AR(□) and β3-AR) ( ? ) after 30 min incubation. ZAG (1 mg) was incubated with trypsin (200 μg) in 1 ml 10 mM Tris.HCl, pH8 for 4 h at 37° C. and proteolysis was terminated by addition of the trypsin inhibitor (200 μg). High molecular weight material was removed by a Sephadex G25 column followed by dialysis using an Amicon filtration cell containing a 10 kDa cut-off membrane filter.
(§2) CHOK1 cells transfected with human β1-, β2- and β3-AR were maintained in DMEM supplemented with 2 mM glutamine, hygromycin B (50 μgml^−1), G418 ([…]) and 10% FCS, under an atmosphere of 10% CO2 in air. For cyclic AMP production cells were grown in 24-well plates in 1 ml nutrient medium, and ZAG, after tryptic digestion as described in the legend to FIG. 3C, was incubated for 30 min. The medium was then removed and 0.5 ml of 20 mM HEPES, pH7.5, 5 mM EDTA and 0.1 mM isobutylmethylxanthine was added, followed by heating on a water bath for 5 min, and cooling on ice for 10 min. The concentration of cyclic AMP was determined using a Parameter cyclic AMP assay kit (New England Biolabs, Hitchin, Herts, UK).

Test [3] relates to ob/ob mice. The experiment in a line: Oral glucose tolerance test in ob/ob mice after 3 days of oral ZAG. It is filed as in vivo, mouse. On the procedure:
Animals were grouped (n=5) to receive either ZAG/PBS (50 μg day^−1), or PBS in their drinking water, the experiment was repeated three times after a power analysis was performed. […] The ZAG was replaced every 48 h. One group of mice receiving ZAG were also administered propanolol (40 mgkg^−1, p.o.) daily. The dose of ZAG was chosen to be the same as that previously administered i.v. (1), so that a direct comparison could be made, between the two routes. Body weight, food and water intake, urinary glucose excretion, and body temperature, determined by the use of a rectal thermometer (RS Components, Northants, UK), were measured daily. A glucose tolerance test was performed on day 3. Animals were fasted for 12 h, followed by oral administration of glucose (1 gkg^−1 in a volume of 100 μl by gavage). Blood samples were removed from the tail vein at 15, 30, 60 and 120 min and used for the measurement of glucose. Urinary glucose was measured by collecting 0.5 ml urine and testing glucose concentration using a Boots glucose monitor. After 8 days of treatment the animals were terminated by cervical dislocation, tissues were removed and rapidly frozen in liquid nitrogen, and maintained at −80° C. […] Animal studies were conducted under Home Office Licence according to the UKCCCR Guidelines for the care and use of laboratory animals.

Test [4] deals with T2, β3-AR (Homo sapiens, UniProt P13945). Particulars: high affinity binding site on the β3-AR; previous studies; cited from earlier work.
In test [5] the target is T2, β3-AR. Put plainly: Cyclic AMP production in CHO cells transfected with human β3-AR. It is filed as cell-based. Further details: expressed in transfected cells; host or cells: CHOK1 (CHO-K1) cells. Particulars: 30 min incubation. On the procedure: as §1, §2

T2 sequence (P13945 whole entry): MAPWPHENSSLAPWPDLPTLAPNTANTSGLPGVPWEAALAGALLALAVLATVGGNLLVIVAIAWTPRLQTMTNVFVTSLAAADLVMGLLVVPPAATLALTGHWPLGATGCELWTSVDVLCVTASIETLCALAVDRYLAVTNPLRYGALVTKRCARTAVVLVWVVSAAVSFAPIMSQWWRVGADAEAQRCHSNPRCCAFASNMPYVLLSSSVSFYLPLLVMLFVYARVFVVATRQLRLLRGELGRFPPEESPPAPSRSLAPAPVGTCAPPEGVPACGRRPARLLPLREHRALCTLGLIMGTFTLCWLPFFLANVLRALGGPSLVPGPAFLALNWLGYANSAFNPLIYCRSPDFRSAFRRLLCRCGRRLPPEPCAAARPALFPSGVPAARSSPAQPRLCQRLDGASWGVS

B1: zinc-α2-glycoprotein (protein, listed as Homo sapiens)
chain: QENQDGRYSLTYIYTGLSKHVEDVPAFQALGSLNDLQFFRYNSKDRKSQPMGLWRQVEGMEDWKEDSQLQKAREDMETLKDIVEYYNDSNGSHVLQGRFGCEIENNRSSGAFWKYYYDGKDYIEFNKEIPAWVPFDPAAQITKQKWEAEPVYVQRAKAYLEEECPATLRKYLKYSKNILDRQDPPSVVVTSHQAPGEKKKLKCLAYDFYPGKIDVHWTRAGQVQEPELRGDVLHNGNGTYQSWVVVAVPPQDTAPYSCHVQHSSLAQPLVVPWEAS
notes: Recombinant human ZAG, a 41 kDa protein, produced by HEK293F cells transfected with pcDNA3.1 containing human ZAG
Consider B1, for which the “increase in oxygen uptake by BAT” value in test [1] is on record as “three-fold”. Besides, in test [2], the “cyclic AMP production” value is listed as “stimulated”. In addition, in test [3] (after 3 days of oral ZAG), the “insulin response to the glucose challenge” value is “decreased the insulin response” and the “peak blood glucose concentration in glucose tolerance test” value is given as “reduced peak blood glucose concentration”. Moreover, in test [3] (after 3 days of oral ZAG, glucose 1 gkg^−1 po after 12 h fast), the “reduction in the total area under the curve (AUC) during oral glucose tolerance test” value stood at 33%. For the same molecule, the sensitivity to insulin result in test [3] (oral ZAG 50 μg day^−1) is given as “increased sensitivity to insulin”. For the same molecule, in test [4], the Bmax was 282±1 fmole mg protein^−1 and the Kd is 78 ± 45 nM. Besides, in test [5], the “cyclic AMP production” value was “stimulated”.
